Source: the nanobody polyreactivity screen of Harvey et al. (2022)

Test: yeast display, Sf9 membrane polyspecificity reagent, FACS + sequencing; frameworks hold sequencing errors
Outline: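 A nanobody's polyreactivity label depends on the gate it was sorted from. Yeast display cells were stained with 10% biotinylated, detergent-solubilized Sf9 membrane reagent for 1 hour at 4 °C, enriched on streptavidin microbeads and sorted by FACS. The low and high (top ~1%) gates were set on anti-HA fluorescence for expression and streptavidin fluorescence for reagent binding.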

Sequence	polyreactivity (PSR sort gate)
QVQLEESGGGLVQAGGSLRLSCAAYGGIFKQYAMGWYRQAPGKETELVAAITWSGGSTYYADSVKGRFTISRDNAKTTVSLQMNSLKPEDTAVYYCAKDYVVFQYVDFQDDDYWGQGTQVSVSS	low polyreactivity
QVQLVESGGGLVQAGGSLRLSCAASGSIITVNAMGWYRQAPGKEREFVAGITSIGGRTYYADSVMGRFTISRDNAKNTVYLQMYSLKPEDTAVYYCNKRSYRARYDYWGQGTQVTVSS	high polyreactivity
QVQLVESGGGLVQAGGSLRLSCAASGRIFAGNAMGWYRQAPGKERELVAVISKGGGRTYYADSVKGRFTFSRDNAKNTVYLQMNSLKPEDTAVYYCAVRTLQRGKHDLGVDYWGQGTHVTVSS	high polyreactivity
QVQLVESGGGLVQAGGSLRLSCAASGYIFSGYAMGWYRQAPGKERELVAAISSNGGSTYYADSVKGRFTISRDNAKNTVNLQMNSLKPEDTAVYYCNRGLAARVGRGDYWGQGTQVTVSS	low polyreactivity
HVQLQESGGGLEQAGGSLRLSCAASGYISDIGTMGWYRQAPGKEREFVANIVVGSTTNYADSVKGRFTISRDNAKNTVYLQPESGRYRGVLLRGWLLAVGKFTYWGQGTQETVSS	low polyreactivity
QDQLVESGGGVVQAGGSLRLSCDASGFIFYRYAMGWSRQAPGKERELLAAISRSGGSTYYADSVKRRFTISRDNAKYTVYLQLKSLKPEDTAVYYCATTGQRNLYLVNYSGQGTQVTVSS	low polyreactivity
QVQLVESGGGLVQAGGSLRLRCAASGSIFARNAMGWYRQAPGKERELVASITWSGASTFYADSVKGRFTISRDNAKYTVYLQMNSLKPDVTAVYYCAATDQKLSLDYSSYEYWGQGSQVTVSS	low polyreactivity
QVQLVESAGGLVQAGVILRLSCPASGSTIEYYAMGWYRQAPGKERELVATISIDGRTNYADSVKGRFTISRDNAKNTVYLQMNSLNPEDTAVYYCAARPYWRHRYDYCGQGTQVTVSS	low polyreactivity
QVQLVESGGGLVQAGGSLRLSCAASGFTFRGYAMGWYRPAPGKERELVAAIRGGGGRTYYADSVKGRFTISRDNAKNTVYLQMNSLKPEDTAVYYCAKVVSIRNDEYDYWGQGTQVTVSS	high polyreactivity
QVQLVESGGGLVQAGGSLRLSCAASGSTIEANAMGWYRQAPGKERELVAVNTWTGGSTYYADSVKGRFTISRDNAKNTVYLQMNSLKPEDTAVYYCAADGVVPGRFFWPAHEYDYWGQGTQVTVSS	low polyreactivity
QVQLVESGGGLVQAGGSLRLRCAASGSTFEMYAMGWYRQEPGKERELVAAITWDTDSTYYADSVKGRFTISRDNAKNTVYLQMNSLKPEDTAVYYCNSQSGRASHYRGYGFDYWGQGTQVTVSS	high polyreactivity
QVQLVESGGGLVQAGGSLRLSCAASGFTFNRYAMAWDRQAPGKERELVATITSGGNTYYADSVKGRFTIARDNAKNTVYLQMNSLKPEDTAVYYCNQLGWYSVYRRDYWGQGTQVTVSS	high polyreactivity
KVQLVESGGGLVQAGGSLRLSCAASGLIFPAYTIGWYRQAPGKEREMVAAISRSGGSTYYADSVKGRFTISRDNAKYTVYLEMNSLKPEDTALYYCAAGYPGYDSYYKFYYWGQGTQVTVSS	high polyreactivity
QVQLVESGGGLVQAGGSLRLSCAASGRTFYVYTMGWYRQAPGKERELVAAITSGGSTNYADSVKGRFTISRDNAKNTVYLQMNSLKPEDTAVYYCAARVSTVFKRYYYWGQGTQVTVSS	high polyreactivity
QVQLVESGGGLVQAGGSLRLSCAASGYTFSYNAMGWYRQAPGKERELVAAISRSGGSTYYADSVKGRFTISRDNAKNTVYLQMNSLKPEDTAVYYCAAKRVSVPYGYWGQGTQVTVSS	high polyreactivity
QVQLVESGGGLVQAGGTLRLSCAASGRIFSKNAMGWYRQAPGKERELVAAMSSSGTSTYYADSVKGRFTISRDNAKNTVYLQINSLKPEDTAVYYCAARVSLTTYSYYSWGQGTQLTVSS	high polyreactivity
QVQIVESGGGLVQAGGSLRISCAASGLTFHRYAMGRYRQAPGKERELVAAINYSGGRTYYADSVKGRFTISRDNAKNTVYLQMNSLKPVDTAVYYCAAPRASGYYWGQGTQVTVSS	high polyreactivity
QVQLVESGGGLVQAGGSLRLSCAASGSTFGYYAMGWYRQAPGKERELVADISKSSGSTYYADSVKGRFTISRDNAKNTVYLQMNSLKPEDTAVYYCNRRYYYRTYDYWGQGTQVTVSS	high polyreactivity
QVQLVESGGGLVQAGGSLRLSCAASGRTFPYYAMGWSRQAPGKERQLVAAISSSGGLTYYADSVKGRFTISRDNAKNTVYLQMNSLKPEDTAVYYFNVDAWYPYQGFLVGYYYWGQGTQVTVSS	low polyreactivity
QVQLVESGGGLVQAGGSLRLSCAASGSIFYSYAMGWYRQAPGKERELVAAITDSGDDTYYADSVKGRFTISRDNAKNTVYLQMNSLKPEDSAVYYCAAEQIYYTSDSSYFVTYDDWGQGTQVSVSS	high polyreactivity
QVHLVESGGGIVQAGGSLRLSCAASVRTFQYYAMGWYRKAPGKEREFVAAITRTGARTYYADSVKGRFTISRDNAKNTVYLQMNSLKPEDTAVYYCAKSLTFYSWRDYGYWGQGTQVTVSS	high polyreactivity
QVQLVESGGGLVQAGGSLRLSCAASGFTFTYYAMGWYRQAPGKERELVAAISWSSDSTYYADSVKGRFTISRDNAKNTVYLQMNSLKPEDTAVYYWAARPGSKNVEYYYWGQGTQVTVSS	low polyreactivity

Sequence	polyreactivity (PSR sort gate)
QVQLVESGGGLVQAGGSLRLSCAASGFITPWYAMGWYRQAAGKEREWVAAIDWSGGSTYYADSVKGRFTISRDNAKNSVYLQMNSVKPEDTAVYYCAARYYTASVRAGRVRMYYWGQGTQVTVSS	high polyreactivity
QVQLVESGVGLVQPGGSLRLIRAAYGRILRDYDMGWYSTAPRKERELVAAINWSDGSTYYADSVKGRFTISRDNAKYTVYLQMNCQKPVDTAVYYCAAEPYVFGLSSKRFWYNYWGQGTEVTVSS	low polyreactivity
QVQHVESGGGLVQAGGSLRLSCAASASTLYRNAMGWYRQAPGKEREFVAAISWSGGSTYYADSVMGRFTISRDNAKNTVYLQMNSLKPEDTAVYYCNADTDRYWPYEYDYWGHGTQVTVSS	low polyreactivity
QVQLVESGVGLVQAGGSLSLSCAASGFTFHDYAMGWYSQAPGKERELVAAIDWSGGRTYYADSVKGRFTISRDNAKNTVYLQMNSLKPEDTAVYYCAAVRYSRLYWYRLDYGGQGTQVTVSS	low polyreactivity
QVQLVESGGGLVQAGGSLRLTCAASGRTFASNDMGWYRQAPGKEMELVADINNGARTYYADSVKGRFTISRDNAKNTVYLQMNSLKPEDTAVYYCAARRYGKQVRLYGYWGQGTQVTVSS	high polyreactivity
QVQLVESGGGLVQSGGILRLSCAASGSTSPIYAMGWYRQAPGTERELVAAINGVGSTNYADSVKGRFTISRDNAKTTVYFQMNSLKPADTAVYYCAADGTALHEYLGDYDYWGQGTQVTVSS	low polyreactivity
QFQLVESGGGLVQAGGSLRLSCAASGSIIPIYAMGWYRQAPGKERELVAAINRSGGSTYYADSVKGRFTISRDNAKNTVYLQMNSLKPEDTAVYYCNADYGYHNQLFWGYYGWSSDHWGQGTQVTVSS	low polyreactivity
QVQLVESGGGLVQAGGSLRLSCAASGSTFSGYVMGWYRQAPGKERELVAAISWGGSRTYYADSVKGRFTISRDNAKNTVYLQMNSLKPEDTAVYYCNAYTSYGTFFYWAWPYYYWGQGTQVTVSS	high polyreactivity
QVQLVESGGGLVQAGGSLRLSCAASGSIFGLYAMGWYRQAPGKERELVAGITYSGGSTYYADSVKGRFTISRDNAKNTVYLQLNSLKPEDTAVYYCNTRYWRGWYAYYYWGQGTQVTVSS	high polyreactivity
QVQLVESGGGLVQAGGSLRLSCAASGIILYGYAMGWYRQAPGKARELVAALTWSGGSTYYADSVKGRFTISRDNAKNTVYLQMNSLKPEDTAVYYCAVDVHTSADASLPQEYDYWGQGTQVTVSS	low polyreactivity
QVQLVESGGGLVQAGGSLRLSCAASGFIFFQYAMGWYRQAPGKERELVAAISGSGVTTYYADSVKGRFTISRDNAKNTVYLQMKSLKPEDTPVYYCAARPSGRGYYLLGYWGQGTQVTVSS	low polyreactivity
QVQLVESGGGLVQAGGSLRLSCAASGFIFIKYAMGWYRQAPGKERELVAGITRSGSSTYYADSVKGRFTISRDNAKNTVYLQMNSLKPEDTAVYYCAAASGSSVGRYGYWGQGTQVTVSS	high polyreactivity
QVQLVESGGGLVQAGGSLRLSCAASGLTFVYYAMGWYRQAPGKERELVAAISSGGRTYYADSVKGRFTISRDNAKNTVYLQMNSLKPEDTGVYYCAAYGGTHYTYRYDYWGQGTQVNVSS	high polyreactivity
QVQLVESGGGLVQAGGSLRLSCAASGSIFYQYAMGWYRQAPGKEREFVAAITRRGTSTYYADSVKGRFTISRDIAKNTVYLQMNSLKPEDTAVYYCAARYGPNMDYWGQGTQVTVSS	high polyreactivity
QVQLVESGGGLVQAGGSLRLSCAASGSILQYYAMGWYRQTPGKERELVAAITSGGSTYYADSVKGRFTISRDNAKNTVYLQMNSLKPEDTAVYYCAKVYRRAQYDYCGQGTQVTVSS	low polyreactivity
QVQLVESGGGLVQAGGSLRLSCAASGITFRGYAMGWYRQAPGKERELVAAITWSGGSTYYADSVKGRFTISRDNAKNTVYLQMNSLKPEDTAVYYCAAYSLHNYLSEYGYWGQGTQVTVSS	high polyreactivity
QVQLVESGGGLVQAGGSLRLSCAASGSTFYRYAMGWYRQAPGKERELVATISWTDGRTNYADSVKGRFTISRDNAKNPVYLQMNSLKPEDTAVYDCAARRYRRWYDYWGQGTQVTVSS	high polyreactivity
QVQLVESGGGLVQEGGSLRLTCAASGRTFTVNAMGWYRQAPGKERELVARISYGGARTYYADSVKGRFTISRDNAKNTVYLQMNSLKPEDTAVYYCAAPGPRKYEYDYWGQGTQVTVSS	high polyreactivity
QVQLVESGGGLVQAGGSLRLSCAASGSTCWSNAMGWYRQAPGKERELVAGISWSDGSTYADSVKGRFTISRDNAKNTVYLQMNSLKPEDTAVYYCAAADNYRGYTYEYDYWGQGTQVTVSS	low polyreactivity
QVQQQQSGGGLVQAGGSLSLSCAASGTIFQLTVMGRYRQAPGKERELVASIDYGGNTNYADSVKGRFTISRDNAKNTVYLQMNSLKPEDTEVYYCAASSDTWTTHPFWGQGTQVTVSS	low polyreactivity
QVQLVESGGGLVQAGGSLRLSCAASGFIFKPNAMGWYRQAPGKERELVAAITWGGDNTYYADSVKGRFTISRDNAKNTVYLQMNSLKPDDTAVYYCAAEWKFHSDASYIYDYWGQGTQVTVSS	high polyreactivity
